Measurements from patent US20230374087A1, “METHOD TO IMPROVE PROTEIN QUALITY CONTROL” (The Johns Hopkins University, priority 2020, published 2023).
Like-named read-outs stand apart in the source and are kept apart here.

Tests used:
proteasome = assay: Proteasome activity assay in NRCMs; assay type: cell-based, rat; conditions: control cells and cells subjected to SI
Procedure: Proteasome peptidase activity assays were performed as described (22) with slight modification.

CHIP pS20 = assay: Immunoblot for phospho-S20 CHIP in myocytes; assay type: cell-based, rat; conditions: cardiomyocytes; cGMP or SIL; DT3 1 μM
Procedure: (§1) Tissue and cultured cardiomyocytes were lysed in 1× lysis buffer (Cell Signaling Technology), protein concentration was measured by bicinchoninic acid assay (Pierce), and extracts were subjected to SDS-PAGE using Novex Tris-Glycine Gels (4-20% gradient gel, Life Technologies) or Mini-protean TGX Gels (4-20% gradient gel, Bio-Rad), transferred to nitrocellulose membranes, and probed with various primary antibodies (CHIP (#2080S), Hsc70 (#8444S), p-CHIP S20 (Custom antibody, AbMart Inc., Shanghai, China; Project: 25011-1), Myc (#2276S), GAPDH (#2118S), and α-tubulin (#3878S) (Cell Signaling) and ubiquitin antibody (#SAB4503053) from Sigma), and fluorescence-labeled secondary antibodies (Licor, #926-32211, 926-32210, 926-68023, or 926-68022). Gels were imaged (Odyssey, Licor) and band intensity quantified (Odyssey Software 3.1).
Human CHIP peptide fragments containing amino acid residues 13-30 were incubated with cGMP/PKG and assayed by MS. […] Phosphorylation was also observed at neighboring S24 and S26, but only when a S20A CHIP mutant was used (FIG. 2D). This indicates the primary target for PKG on CHIP is at S20. A monoclonal phospho-antibody generated against the S20 site in CHIP was tested in vitro with recombinant PKG1α and CHIP, verifying a consistent phospho-S20-CHIP signal. Use of a CHIP-S20A mutant CHIP confirmed specificity (FIG. 2E).

[1] = system: neonatal rat cardiomyocytes (NRCMs); assay: LDH/MTT cytotoxicity assay after simulated ischemia (SI); conditions: for SI-induced cytotoxicity (LDH/MTT ratio): sildenafil 1 μM
Procedure: (§3) After overnight culture, subsets of NRCMs were infected with adenovirus (AdV) containing a FLAG-tagged PDE5, FLAG control, Myc-tagged CHIP WT or K31A (provided by Dr. Cam Patterson), S20E or S20A (Welgen Inc., Worcester, MA). Forty-eight hours after infection, cells were exposed to either simulated ischemia (SI) or normal conditions. SI involved incubating cells in DMEM containing deoxyglucose (20 mM), NaCl (125 mM), KCl (8 mM), KH2PO4 (1.2 mM), MgSO4 (1.25 mM), CaCl2) (1.2 mM), NaHCO3(6.25 mM), sodium lactate (5 mM), and HEPES (20 mM) with a pH of 6.6. Cells were then placed in an incubator chamber (Billups-Rothenberg) with 95% nitrogen, 4% carbon dioxide, and 1% oxygen. Normoxic controls were incubated in DMEM supplemented with 10% FBS in air composed of 95% carbon dioxide and 5% oxygen. RNA or protein was harvested after 48 hours of SI. Cells were also treated with sildenafil (1 μM) or vehicle, or small interference RNA (siRNA, 100 pM) specific for rat Stub1 (Qiagen, Cat. #: SI01532251) or scrambled control provided 24 hours after plating and transfected with Xfect (Takara) per manufacturer protocol.
(§4) Lactate dehydrogenase (LDH) leakage and (3-[4,5-dimethylthiazol-2-yl]-2,5-diphenyltetrazolium bromide) (MTT) were assessed in cultured cardiomyocytes and media after SI from the same culture dish. LDH was assayed by commercial assay (Roche) following manufacturer's protocol, read in 96 well microplates on a Spectramax M5 (Molecular Devices) at 490 nm absorbance. For MTT, cells were washed in phosphate-buffered saline, MTT (Sigma-Aldrich) working solution added to the culture dish, incubated at 37° C., solubilized with acidic isopropanol, transferred to a 96 well plate, and read at 570 nm with background subtraction at 650 nm on a Spectramax M5.

TTR-V122I = assay: TTR abundance in hiPSC-CMs by western blot; assay type: cell-based, human; conditions: siLamp2A 100 μM, TTR-V122I 5 μM, 14 days
Procedure: (§2) Human induced pluripotent stem cell derived cardiomyocytes (hiPSC-CMs) were infected with Ad-Chip WT, SE, or SA (10 MOI), in the presence or absence of protein kinase G (PKG) stimulation via cGMP (100 mM) and exposed to media containing TTR-V122I (5 μM) or control for 14 days. Cells were lysed and TTR abundance was determined by western blotting for TTR with a total protein stain used to show equal loading.
as §2, with “Lamp2A knockdown” for “protein kinase G (PKG) stimulation”, “siRNA (siLamp2A, 100 μM)” for “cGMP (100 mM)”, “loading. Knocking down Lamp2A removes the method of protein degradation known as chaperone mediated autophagy (CMA).” for “loading.”

[2] = system: transthyretin (TTR) V122I; assay: TTR aggregates in NRCMs by confocal microscopy; assay type: cell-based, rat; conditions: TTR V122I 5 μM, adenovirus, 14 days
Procedure: Neonatal rat cardiomyocytes (NRCMs) were cultured in mutant transthyretin (TTR) valine 122 to isoleucine (V122I)-containing medium (5 μM) and transfected with a Chip SE (serine 20 phospho-mimetic) or SA ([…] phospho-null) adenovirus and cultured for 14 days. Cardiomyocytes were stained with phalloidin (red), TTR (green), and nuclei with DAPI (blue).

Hsc70 = target: T1, Hsc70 (Rattus norvegicus, UniProt P63018); assay: CHIP-Hsc70 co-immunoprecipitation from myocyte lysate; assay type: cell-based; conditions: myocytes with or without SI, Hsc70 as bait
T1 construct: lysate from myocytes with or without exposure to SI were immunoprecipitated using Hsc70 as bait; endogenous in cells; host or cells: neonatal rat cardiomyocytes infected with adenovirus for Myc-tagged CHIP WT, S20E or S20A
Procedure: as §1
To test whether thermodynamic stabilization of CHIP-HSC70 due to S20 phosphorylation enhances protein binding, lysate from myocytes with or without exposure to SI were immunoprecipitated using Hsc70 as bait. […] Reduced CHIP-Hsc70 interaction was also observed in vivo following MI in hearts with PKG activation suppressed by mPDE5A/oe, whereas this was enhanced in WT hearts (FIG. 5C, FIG. 14B).

ubiquitinated proteins = assay: Western blot of ubiquitinated proteins in NRCMs after SI; assay type: cell-based, rat; conditions: adenovirus CHIP variant, SI 48 hours, compared to CHIP-WT
Procedure: as §1

[3] = system: neonatal rat cardiomyocytes (NRCMs)
Procedure: as §3, §4

[4] = target: T2, recombinant human CHIP peptide fragment containing residues 13-30 (Uniprot Q9UNE7), WT
T2 chain: LGAGGGSPEKSPSAQELK

[5] = target: T3, recombinant human CHIP peptide fragment containing residues 13-30, S20A
T3 chain: LGAGGGAPEKSPSAQELK

## CCCc1nn(C)c2c(=O)[nH]c(-c3cc(S(=O)(=O)N4CCN(C)CC4)ccc3OCC)nc12 [SIL, sildenafil]
proteasome
  proteasome activity: augmented
CHIP pS20
  CHIP pS20 level: CHIP pS20 increased
[1]; NRCMs expressing CHIP (scrambled siRNA)
  SI-induced cytotoxicity (LDH/MTT ratio): reduced SI-induced cytotoxicity
[1]; NRCMs expressing WT, S20E or S20A CHIP, control and SI conditions
  cytotoxicity with SIL across CHIP forms: lowered cytotoxicity regardless of which CHIP protein was expressed
[1]; NRCMs lacking CHIP (CHIP-siRNA)
  SI-induced cytotoxicity (LDH/MTT ratio): this protective effect was lost

B1: CHIP-S20A: phospho-silenced (phospho-null) CHIP mutant, serine 20 to alanine (protein)
chain: MKGKEEKEGGARLGAGGGAPEKSPSAQELKEQGNRLFVGRKYPEAAACYGRVITRNPLVAVYYTNRALCYLKMQQHEQALADCRRALELDGQSVKAHFFLGQCQLEMESYDEAIANLQRAYSLAKEQRLNFGDDIPSALRIAKKKRWNSIEERRIHQESELHSYLSRLIAAERERELEECQRNHEGDEDDSHVRAQQACIEAKHDKYMADMDELFSQVDEKRKKRDIPDYLCGKISFELMREPCITPSGITYDRKDIEEHLQRVGHFDPVTRSPLTQEQLIPNLAMKEVIDAFISENGWVEDY
modifications: left off: small tags and cut ends
notes: phospho-silenced (phospho-null) CHIP mutant, serine 20 to alanine
TTR-V122I
  TTR accumulation with Lamp2A knockdown: exacerbated the accumulation of TTR
[2]
  TTR positive aggregates: increased TTR positive aggregates
Hsc70
  co-precipitation of CHIP and Hsc70: co-precipitation was absent
Ubiquitinated proteins
  ubiquitinated proteins after SI: significantly amplified
[3]
  SI-induced cytotoxicity (LDH/MTT ratio): displayed greater cytotoxicity and blunted the protective effects from SIL

B2: human, active PKG1α purified from Sf9 cells (SRP0371, Sigma) (protein)
chain: SELEEDFAKILMLKEERIKELEKRLSEKEEEIQELKRKLHKCQSVLPVPSTHIGPRTTRAQGISAEPQTYRSFHDLRQAFRKFTKSERSKDLIKEAILDNDFMKNLELSQIQEIVDCMYPVEYGKDSCIIKEGDVGSLVYVMEDGKVEVTKEGVKLCTMGPGKVFGELAILYNCTRTATVKTLVNVKLWAIDRQCFQTIMMRTGLIKHTEYMEFLKSVPTFQSLPEEILSKLADVLEETHYENGEYIIRQGARGDTFFIISKGTVNVTREDSPSEDPVFLRTLGKGDWFGEKALQGEDVRTANVIAAEAVTCLVIDRDSFKHLIGGLDDVSNKAYEDAEAKAKYEAEAAFFANLKLSDFNIIDTLGVGGFGRVELVQLKSEESKTFAMKILKKRHIVDTRQQEHIRSEKQIMQGAHSDFIVRLYRTFKDSKYLYMLMEACLGGELWTILRDRGSFEDSTTRFYTACVVEAFAYLHSKGIIYRDLKPENLILDHRGYAKLVDFGFAKKIGFGKKTWTFCGTPEYVAPEIILNKGHDISADYWSLGILMYELLTGSPPFSGPDPMKTYNIILRGIDMIEFPKKIAKNAANLIKKLCRDNPSERLGNLKNGVKDIQKHKWFEGFNWEGLRKGTLTPPIIPSVASPTDTSNFDSFPEDNDEPPPDDNSGWDIDF
[4]
  serine phosphorylation detected by mass spectrometry after incubation with cGMP/PKG: Phosphorylation was observed at S20 with wildtype (WT) CHIP
[5]
  serine phosphorylation detected by mass spectrometry after incubation with cGMP/PKG: Phosphorylation was also observed at neighboring S24 and S26, but only when a S20A CHIP mutant was used
